Target: Apo2L/TRAIL-R1/DR4 (human (endogenous in MCF-7)) (UniProt O00220)
Sequence of UniProt O00220 (O00220 24-468): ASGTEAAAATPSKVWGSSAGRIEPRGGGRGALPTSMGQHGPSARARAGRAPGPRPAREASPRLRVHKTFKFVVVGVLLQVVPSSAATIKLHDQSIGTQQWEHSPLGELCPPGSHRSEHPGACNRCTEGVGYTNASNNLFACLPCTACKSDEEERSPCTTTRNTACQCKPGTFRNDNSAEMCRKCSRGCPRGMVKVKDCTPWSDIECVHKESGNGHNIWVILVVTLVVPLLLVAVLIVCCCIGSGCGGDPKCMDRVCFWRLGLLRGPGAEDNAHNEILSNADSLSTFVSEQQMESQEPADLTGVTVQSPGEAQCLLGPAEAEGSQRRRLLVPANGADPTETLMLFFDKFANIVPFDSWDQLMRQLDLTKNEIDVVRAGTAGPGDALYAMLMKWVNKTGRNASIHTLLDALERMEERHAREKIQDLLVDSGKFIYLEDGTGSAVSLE

Human recombinant Apo2L/TRAIL (from UniProt P50591 1-281) (ligand)
cellular apoptosis (viability by crystal violet, OD570) of MCF-7 PTHrP overexpressing cells pre-incubated with antagonistic anti-TRAIL-R1 antibody (10 µg/ml), then treated with 100 ng/ml Apo2L/TRAIL: 50%
